From publication PMC4787810 (Nucleic Acids Research, 2015)
Read-outs that look alike come from different tables or passages of the source.

Experiments:
[1] = target: the molecule itself; assay: SEC-MALS
[2] = target: the molecule itself; assay: cross-linking
[3] = target: T1, HpDnaB replicative helicase (Helicobacter pylori, UniProt O25916 1-488); assay: fluorescence anisotropy
T1 sequence: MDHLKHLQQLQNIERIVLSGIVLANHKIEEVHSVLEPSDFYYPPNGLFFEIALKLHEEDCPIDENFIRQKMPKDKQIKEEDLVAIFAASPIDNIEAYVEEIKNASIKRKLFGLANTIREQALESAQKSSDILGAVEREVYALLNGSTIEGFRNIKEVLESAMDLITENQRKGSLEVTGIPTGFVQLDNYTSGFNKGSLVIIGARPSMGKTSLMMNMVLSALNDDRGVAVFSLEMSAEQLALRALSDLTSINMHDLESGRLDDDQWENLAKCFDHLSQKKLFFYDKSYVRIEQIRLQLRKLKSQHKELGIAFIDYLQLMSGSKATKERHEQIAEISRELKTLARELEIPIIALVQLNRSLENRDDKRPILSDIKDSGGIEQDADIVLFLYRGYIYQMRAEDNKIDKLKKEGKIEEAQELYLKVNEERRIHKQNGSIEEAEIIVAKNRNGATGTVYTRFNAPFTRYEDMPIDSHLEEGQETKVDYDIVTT

[4] = target: T1, HpDnaB replicative helicase; assay: fluorescence anisotropy; remark: listed apart in the source
[5] = target: T2, HpDnaB replicative helicase;HpDnaG helicase-binding domain (HpDnaGHBD) (Helicobacter pylori;Helicobacter pylori …, UniProt O25916;P56064 1-488;415-559, |); assay: fluorescence anisotropy
T2 sequence 1: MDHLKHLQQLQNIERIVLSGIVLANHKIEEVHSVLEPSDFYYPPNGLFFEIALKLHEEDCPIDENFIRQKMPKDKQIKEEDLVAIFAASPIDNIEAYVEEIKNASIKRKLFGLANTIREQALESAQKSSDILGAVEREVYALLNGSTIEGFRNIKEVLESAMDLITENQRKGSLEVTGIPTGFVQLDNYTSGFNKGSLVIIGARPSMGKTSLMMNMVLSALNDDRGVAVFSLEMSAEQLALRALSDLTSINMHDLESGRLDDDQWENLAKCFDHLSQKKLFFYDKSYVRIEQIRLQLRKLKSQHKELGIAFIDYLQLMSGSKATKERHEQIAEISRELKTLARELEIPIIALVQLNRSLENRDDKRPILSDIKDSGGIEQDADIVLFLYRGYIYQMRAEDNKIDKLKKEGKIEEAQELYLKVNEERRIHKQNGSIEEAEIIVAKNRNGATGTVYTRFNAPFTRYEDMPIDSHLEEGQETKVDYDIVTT
T2 sequence 2: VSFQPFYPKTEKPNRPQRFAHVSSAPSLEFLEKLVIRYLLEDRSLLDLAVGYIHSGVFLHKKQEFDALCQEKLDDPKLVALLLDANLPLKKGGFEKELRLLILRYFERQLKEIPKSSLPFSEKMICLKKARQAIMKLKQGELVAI

[6] = target: T2, HpDnaB replicative helicase;HpDnaG …; assay: fluorescence anisotropy; remark: listed apart in the source
[7] = target: T1, HpDnaB replicative helicase; assay: fluorescence anisotropy; remark: listed apart in the source
[8] = target: T1, HpDnaB replicative helicase; assay: fluorescence anisotropy; remark: listed apart in the source

B1: HpDnaB^Δ9 (N-terminal deletion mutant starting at residue 10) (domain or fragment, Helicobacter pylori, UniProt O25916 10-488, looked up)
chain: LQNIERIVLSGIVLANHKIEEVHSVLEPSDFYYPPNGLFFEIALKLHEEDCPIDENFIRQKMPKDKQIKEEDLVAIFAASPIDNIEAYVEEIKNASIKRKLFGLANTIREQALESAQKSSDILGAVEREVYALLNGSTIEGFRNIKEVLESAMDLITENQRKGSLEVTGIPTGFVQLDNYTSGFNKGSLVIIGARPSMGKTSLMMNMVLSALNDDRGVAVFSLEMSAEQLALRALSDLTSINMHDLESGRLDDDQWENLAKCFDHLSQKKLFFYDKSYVRIEQIRLQLRKLKSQHKELGIAFIDYLQLMSGSKATKERHEQIAEISRELKTLARELEIPIIALVQLNRSLENRDDKRPILSDIKDSGGIEQDADIVLFLYRGYIYQMRAEDNKIDKLKKEGKIEEAQELYLKVNEERRIHKQNGSIEEAEIIVAKNRNGATGTVYTRFNAPFTRYEDMPIDSHLEEGQETKVDYDIVTT
Question: Which “stoichiometry N” value [1] does the source give for B1 here?
Answer: ~6

Question: And the “stoichiometry N” value [2]?
Answer: 6

Question: With TTTTTTTTTTTTTTTTTTTT (ssDNA) [20dT] as the binder, how does the Kd [3] read?
Answer: 15 ± 1 nM

Question: And the Kd [4]?
Answer: 3.1 ± 0.1 nM

Question: What about the Kd [5] of the same binder?
Answer: 1 ± 0.1 nM

Question: And the Kd [6]?
Answer: 8.3 ± 0.6 nM

B2: HpDnaB^L4A (enzyme, Helicobacter pylori, UniProt O25916 1-488, looked up)
chain: MDHAKHLQQLQNIERIVLSGIVLANHKIEEVHSVLEPSDFYYPPNGLFFEIALKLHEEDCPIDENFIRQKMPKDKQIKEEDLVAIFAASPIDNIEAYVEEIKNASIKRKLFGLANTIREQALESAQKSSDILGAVEREVYALLNGSTIEGFRNIKEVLESAMDLITENQRKGSLEVTGIPTGFVQLDNYTSGFNKGSLVIIGARPSMGKTSLMMNMVLSALNDDRGVAVFSLEMSAEQLALRALSDLTSINMHDLESGRLDDDQWENLAKCFDHLSQKKLFFYDKSYVRIEQIRLQLRKLKSQHKELGIAFIDYLQLMSGSKATKERHEQIAEISRELKTLARELEIPIIALVQLNRSLENRDDKRPILSDIKDSGGIEQDADIVLFLYRGYIYQMRAEDNKIDKLKKEGKIEEAQELYLKVNEERRIHKQNGSIEEAEIIVAKNRNGATGTVYTRFNAPFTRYEDMPIDSHLEEGQETKVDYDIVTT
Question: Does B2 bind [1]?
Answer: binds

B3: HpDnaB^E80A (enzyme, Helicobacter pylori, UniProt O25916 1-488, looked up)
chain: MDHLKHLQQLQNIERIVLSGIVLANHKIEEVHSVLEPSDFYYPPNGLFFEIALKLHEEDCPIDENFIRQKMPKDKQIKEADLVAIFAASPIDNIEAYVEEIKNASIKRKLFGLANTIREQALESAQKSSDILGAVEREVYALLNGSTIEGFRNIKEVLESAMDLITENQRKGSLEVTGIPTGFVQLDNYTSGFNKGSLVIIGARPSMGKTSLMMNMVLSALNDDRGVAVFSLEMSAEQLALRALSDLTSINMHDLESGRLDDDQWENLAKCFDHLSQKKLFFYDKSYVRIEQIRLQLRKLKSQHKELGIAFIDYLQLMSGSKATKERHEQIAEISRELKTLARELEIPIIALVQLNRSLENRDDKRPILSDIKDSGGIEQDADIVLFLYRGYIYQMRAEDNKIDKLKKEGKIEEAQELYLKVNEERRIHKQNGSIEEAEIIVAKNRNGATGTVYTRFNAPFTRYEDMPIDSHLEEGQETKVDYDIVTT
Question: Does B3 bind [1]?
Answer: binds

B4: HpDnaB^Q8A (enzyme, Helicobacter pylori, UniProt O25916 1-488, looked up)
chain: MDHLKHLAQLQNIERIVLSGIVLANHKIEEVHSVLEPSDFYYPPNGLFFEIALKLHEEDCPIDENFIRQKMPKDKQIKEEDLVAIFAASPIDNIEAYVEEIKNASIKRKLFGLANTIREQALESAQKSSDILGAVEREVYALLNGSTIEGFRNIKEVLESAMDLITENQRKGSLEVTGIPTGFVQLDNYTSGFNKGSLVIIGARPSMGKTSLMMNMVLSALNDDRGVAVFSLEMSAEQLALRALSDLTSINMHDLESGRLDDDQWENLAKCFDHLSQKKLFFYDKSYVRIEQIRLQLRKLKSQHKELGIAFIDYLQLMSGSKATKERHEQIAEISRELKTLARELEIPIIALVQLNRSLENRDDKRPILSDIKDSGGIEQDADIVLFLYRGYIYQMRAEDNKIDKLKKEGKIEEAQELYLKVNEERRIHKQNGSIEEAEIIVAKNRNGATGTVYTRFNAPFTRYEDMPIDSHLEEGQETKVDYDIVTT
Question: Which “stoichiometry N” value [2] does the source give for B4 here?
Answer: 6

Question: TTTTTTTTTTTTTTTTTTTTTTTTTTTTTTTTTTTTTTTTTTTTTTTTTT (ssDNA) [50dT] was tested. Which Kd [7] did it give?
Answer: 70 ± 6 nM

Question: What about the Kd [8] of the same binder?
Answer: 1.8 ± 0.2 nM
